What all share (details): both partners purified
Assay [1] deals with T1, His-tagged MDM2 (recombinant, bacteria-expressed) (UniProt Q00987 1-491).
T1 construct: MDM2, E3 ubiquitin-protein ligase; His-tagged construct purchased from Genscript; also called His-MDM2; MDM2 recombinant protein; source: E. coli BL-21(DE3), purified (Ni-NTA-agarose)
Kind of assay: MST; fluorescence-labeled MDM2 (target, 5 nM, RED-NHS) constant, non-labeled ligand titrated to 500 nM; 50 mM Tris-HCl pH 8.0, 50 mM NaCl, 80 mM KCl, 0.05% Tween-20; Monolith NT.115 Pico.

Assay [2] has as its target T1, His-tagged MDM2 (recombinant, …). Kind of assay: MST; fluorescence-labeled αBC or HSP27 (target, 5 nM, RED-NHS) constant, non-labeled His-/FLAG-MDM2 or His-/FLAG-p53 titrated to 500 nM; 50 mM Tris-HCl pH 8.0, 50 mM NaCl, 80 mM KCl, 0.05% Tween-20.
The target in assay [3] is T2, FLAG-tagged MDM2 (mammalian-expressed, PIPn-linked) (UniProt Q00987 1-491, PIP2 stably associated (PIPn-linked), site not told).
T2 construct: MDM2; cDNA purchased from OriGene; Its chemistry and site are unknown; also called FLAG-MDM2; PIPn-linked MDM2; source: HEK293FT, purified (FLAG Purification Kit), dialysed into PBS
T2 sequence (Q00987 whole entry): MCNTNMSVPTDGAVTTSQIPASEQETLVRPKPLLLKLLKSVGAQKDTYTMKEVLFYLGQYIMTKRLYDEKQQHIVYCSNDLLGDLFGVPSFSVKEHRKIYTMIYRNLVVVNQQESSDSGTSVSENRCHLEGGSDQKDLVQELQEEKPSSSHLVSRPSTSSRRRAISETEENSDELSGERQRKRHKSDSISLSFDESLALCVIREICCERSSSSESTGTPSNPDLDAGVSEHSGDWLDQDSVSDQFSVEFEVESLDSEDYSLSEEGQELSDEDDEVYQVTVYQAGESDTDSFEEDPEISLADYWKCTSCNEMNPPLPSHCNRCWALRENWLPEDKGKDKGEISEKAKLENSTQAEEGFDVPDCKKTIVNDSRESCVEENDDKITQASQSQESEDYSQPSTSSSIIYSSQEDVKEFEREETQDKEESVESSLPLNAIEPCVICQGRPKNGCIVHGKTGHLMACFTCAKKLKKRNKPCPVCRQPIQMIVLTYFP
Described as above.

What is called Kd is the equilibrium constant for the complex coming apart.

T1 sequence (Q00987 whole entry): as above

B1: αB-crystallin (recombinant, His-tagged) (natural protein, UniProt P02511 1-175, looked up)
chain: MDIAIHHPWIRRPFFPFHSPSRLFDQFFGEHLLESDLFPTSTSLSPFYLRPPSFLRAPSWFDTGLSEMRLEKDRFSVNLDVKHFSPEELKVKVLGDVIEVHGKHEERQDEHGFISREFHRKYRIPADVDPLTITSSLSSDGVLTVNGPRKQVSGPERTIPITREEKPAVTAAPKK
notes: αB-crystallin; His-tagged construct purchased from Genscript; source: E. coli BL-21(DE3), purified (Ni-NTA-agarose)
For the molecule B1, the Kd in assay [1] is 58 ± 5 nM; in assay [2], 58 ± 5 nM; in assay [3], 7 ± 1 nM.

Values taken from publication PMC12409426, “Regulation of the MDM2-p53 nexus by a nuclear phosphoinositide and small heat shock protein complex” (The Journal of Biological Chemistry, 2025).
